Assays:
[1] = target: MERS-CoV spike (S) protein (MERS-CoV) (UniProt K9N5Q8); experiment: cell-based or functional assay
[2] = target: SARS-CoV-2 spike (S) glycoprotein (SARS-CoV-2) (UniProt P0DTC2); experiment: cell-based or functional assay

For “MERS-CoV C-lipopeptide (MERS-CoV S HRC residues 1251-1286, cholesterol-conjugated)”, the IC50, plaque-neutralization test, MERS-CoV infection of Vero E6 cells [1] was under 8 nM and the IC50, plaque-neutralization test, SARS-CoV-2 infection of Vero E6 cells [2] was 90 nM.
